Data set [1] has as its target T1, HP1α (mouse, UniProt Q61686 1-191). Nature of the data set: BLI; K+; BLI: 100 mM KCl, 50 mM NaCl, 20 mM Na phosphate, pH 8 (G4) or pH 7 (i-motif, dsDNA), room temp, 500 nM oligo or titration; EMSA: 50 mM Tris-HCl pH 7.5, 100 mM KCl, 0.5 mM EDTA, 0.5 mM DTT, 0.1 mg/ml BSA, room temp 1 h. Conditions: protein: recombinant, tags: N-terminal His6 (pPROEX HTb), chain copies: 2. For orientation: In BLI a coated tip is dipped into the sample, and binding shifts an interference pattern.

Data set [2] addresses T1, HP1α. Nature of the data set: BLI; pH 7; BLI: 100 mM KCl, 50 mM NaCl, 20 mM Na phosphate, pH 8 (G4) or pH 7 (i-motif, dsDNA), room temp, 500 nM oligo or titration; EMSA: 50 mM Tris-HCl pH 7.5, 100 mM KCl, 0.5 mM EDTA, 0.5 mM DTT, 0.1 mg/ml BSA, room temp 1 h. Conditions: protein: recombinant, tags: N-terminal His6 (pPROEX HTb), chain copies: 2.
Data set [3] has as its target T1, HP1α. Nature of the data set: BLI; BLI: 100 mM KCl, 50 mM NaCl, 20 mM Na phosphate, pH 8 (G4) or pH 7 (i-motif, dsDNA), room temp, 500 nM oligo or titration; EMSA: 50 mM Tris-HCl pH 7.5, 100 mM KCl, 0.5 mM EDTA, 0.5 mM DTT, 0.1 mg/ml BSA, room temp 1 h. Conditions: protein: recombinant, tags: N-terminal His6 (pPROEX HTb), chain copies: 2.
In the next data set the target is HP1β (mouse, UniProt P83917 1-185). Nature of the data set: BLI; K+; BLI: 100 mM KCl, 50 mM NaCl, 20 mM Na phosphate, pH 8 (G4) or pH 7 (i-motif, dsDNA), room temp, 500 nM oligo or titration; EMSA: 50 mM Tris-HCl pH 7.5, 100 mM KCl, 0.5 mM EDTA, 0.5 mM DTT, 0.1 mg/ml BSA, room temp 1 h. Conditions: protein: recombinant; tags: N-terminal His6 (pPROEX HTb); chain copies: 2; antiparallel G4.
Chain of HP1β (P83917 whole entry): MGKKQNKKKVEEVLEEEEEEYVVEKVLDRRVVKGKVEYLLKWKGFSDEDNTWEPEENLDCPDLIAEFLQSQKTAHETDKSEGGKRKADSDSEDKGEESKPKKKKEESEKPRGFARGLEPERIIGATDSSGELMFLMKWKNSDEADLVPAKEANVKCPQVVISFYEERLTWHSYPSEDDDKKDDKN

The target of the next data set is HP1α 3K-A (mouse, UniProt Q61686 1-191, K104A;K105A;K106A). The description is as above. Conditions: protein: recombinant; tags: N-terminal His6 (pPROEX HTb); chain copies: 2; antiparallel G4.
Chain of HP1α 3K-A (Q61686 whole entry K104A/K105A/K106A): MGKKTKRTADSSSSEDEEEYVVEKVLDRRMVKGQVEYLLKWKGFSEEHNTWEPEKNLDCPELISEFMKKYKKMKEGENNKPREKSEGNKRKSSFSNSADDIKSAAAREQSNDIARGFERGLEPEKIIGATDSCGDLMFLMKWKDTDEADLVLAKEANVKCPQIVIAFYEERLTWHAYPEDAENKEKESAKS
Another data set deals with HP1γ (mouse, UniProt P23198 1-183). The data set is described as above. Conditions: protein: recombinant; tags: N-terminal His6 (pPROEX HTb); chain copies: 2; antiparallel G4.
Chain of HP1γ (P23198 whole entry): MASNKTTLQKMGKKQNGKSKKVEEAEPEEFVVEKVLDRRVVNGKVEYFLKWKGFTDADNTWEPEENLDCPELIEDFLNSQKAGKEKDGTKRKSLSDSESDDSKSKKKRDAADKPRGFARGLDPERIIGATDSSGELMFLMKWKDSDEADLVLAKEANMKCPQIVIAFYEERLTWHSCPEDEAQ

T1 sequence (Q61686 whole entry): as the sequence (Q61686 whole entry K104A/K105A/K106A) above, with A104K, A105K, A106K counted along it

B1: c-myc2 (structured_DNA)
DNA: GGGTGGGTAGGGTGGG
As usually defined, the Kd is the concentration at which binding is half-saturated. With B1, in the data set with HP1α [1] (parallel G4, at least dimer on native PAGE), the Kd was 610 ± 40 nM.

B2: cTEL45 (structured_DNA)
DNA: CCCTAACCCTAACCCTAACCCTAACCCTAACCCTAACCCTAACCC
On to B2, for which the binding result in the data set with HP1α [2] (i-motif (partial at pH 7)) is “no binding”.

B3: ckit2 (structured_DNA)
DNA: GGGCGGGCGCCAGGGAGGGG
As to B3, in the data set with HP1α [1] (parallel G4), the Kd is 199 ± 3 nM.

B4: Oligo G (structured_DNA)
DNA: TGGGTTAGGGTTAGGGTTAGGGTGGGTTAGGGTTAGGGTTAGGGT
For B4, the binding result with HP1α [1] (antiparallel or hybrid G4) is listed as “no binding”.

B5: Oligo D (structured_DNA)
DNA: TGGGTGGGTTAGGGTGGGTGGGTGGGTTAGGGTGGGT
Take B5: in the data set with HP1α [1] (parallel G4), the Kd turned out to be 52.6 ± 1.1 nM.

B6: Oligo A (structured_DNA)
DNA: TGGGTGGGTGGGTGGGTGGGTGGGTGGGTGGGT
B6: the Kd in the data set with HP1α [1] (parallel G4) amounted to 86.8 ± 0.2 nM.

B7: src3 (structured_DNA)
DNA: GGGAGGGAGGGCTGGGGG
Regarding B7, the Kd with HP1α [1] (parallel G4) came to 140 ± 2 nM.

B8: Oligo F (structured_DNA)
DNA: TGGGTTAGGGTTAGGGTGGGTGGGTTAGGGTTAGGGTGGGT
Turning to B8, the Kd with HP1α [1] (parallel G4) turned out to be 61.7 ± 1.5 nM.

B9: LL3rep (structured_DNA)
DNA: TCGTTCCGTTTTTCGTTCCGTTTTTCGTTCCGTTTTTCGTTCCGT
As to B9, the binding result in the data set with HP1α [2] (mini-i-motif) is listed as “no binding”.

B10: Oligo E (structured_DNA)
DNA: TGGGTGGGTTAGGGTTAGGGTGGGTGGGTTAGGGTTAGGGT
As to B10, in the data set with HP1α [1] (parallel G4), the Kd worked out at 43.8 ± 1 nM.

B11: Oligo C (structured_DNA)
DNA: TGGGTTAGGGTGGGTTAGGGTGGGTTAGGGTGGGTTAGGGT
For B11, the Kd with HP1α [1] (parallel G4) is 78.2 ± 0.3 nM.

B12: src2 (structured_DNA)
DNA: GGGGCAGCTGGGTCGCTCGGGGAACGGGG
Regarding B12, the Kd with HP1α [1] (antiparallel G4) amounted to 410 ± 20 nM.

B13: Thy45 (ssDNA)
DNA: TTTTTTTTTTTTTTTTTTTTTTTTTTTTTTTTTTTTTTTTTTTTT
With B13, in the data set with HP1α [3] (unstructured), the binding result was “no binding”.

B14: gTEL45 (structured_DNA)
DNA: GGGTTAGGGTTAGGGTTAGGGTTAGGGTTAGGGTTAGGGTTAGGG
Regarding B14, the binding result in the data set with HP1β, in the data set with HP1α 3K-A, in the data set with HP1α [1] (antiparallel G4) and with HP1γ was “no binding” in each case.

B15: kras (structured_DNA)
DNA: AGGGCGGTGTGGGAAGAGGGAAGAGGGGGAGG
On to B15, for which the Kd in the data set with HP1α [1] (parallel G4) amounted to 68.8 ± 0.7 nM.

B16: rC-rich22 (ssRNA)
RNA: ACCCAAUCCCAAUCCCAAUCCC
B16: in the data set with HP1α [3], the binding result was “no binding”.

B17: bcl2 (structured_DNA)
DNA: AGGGGCGGGCGCGGGAGGAAGGGGGCGGGAGCGGGGCTG
On to B17, for which, in the data set with HP1α [1] (parallel G4), the Kd is 93.5 ± 1.6 nM.

B18: src16 (structured_DNA)
DNA: GGGCTGCTGGGACTGGTTGGGAGGGCACTCTGGGG
As to B18, the Kd in the data set with HP1α [1] (antiparallel G4) stood at 1630 ± 1700 nM.

B19: Oligo B (structured_DNA)
DNA: TGGGTTGGGTTGGGTTGGGTTGGGTTGGGTTGGGTTGGGT
Turning to B19, in the data set with HP1α [1] (parallel G4, monomer-dimer equilibrium), the Kd worked out at 69.1 ± 0.9 nM.

These data come from publication PMC6954420, “Heterochromatin protein 1α interacts with parallel RNA and DNA G-quadruplexes”.
